Source: US12233115B2, “Long-acting parathyroid hormone” (Extend Biosciences, Inc., priority 2022, dated 2025)
Where two headings read alike, the source gives them in different places.

Legend:
[1] = Single dose pharmacokinetics of EXT607 in male rats; details: rat, in vivo, sc; rats, after subcutaneous dosing; read-out: terminal half-life
Experimental: In a single dose pharmacokinetic study, EXT607 was formulated in PBS and groups of male rats (n=3) were dosed at a volume of 1 ml/kg as follows: Group 1, 100 μg/kg intravenous; Group 2, 30 μg/kg subcutaneous; Group 3, 100 μg/kg subcutaneous; Group 4, 300 μg/kg subcutaneous. Blood (0.25 mL) was collected via the jugular vein cannula, transferred into tubes containing K2EDTA, and kept on wet ice until processed for plasma. Blood samples were collected at 0 (predose), 0.083 (IV only), 0.25, 0.5, 1, 2, 4, 6, 8, 12, 24, 36, 48, 60 and 72 h postdose.
Pharmacokinetic parameters were determined from the plasma concentration versus time data (Table 4) by a non-compartmental analysis with uniform weighting using Phoenix® WinNonlin® Version 6.3 (Certara L.P. (Pharsight), St. Louis, MO). The concentration versus time data were analyzed using the IV bolus or extravascular administration models. Best fit Lambda z ranges were used.

[2] = Repeat dose pharmacokinetics of EXT608 in male and female cynomolgus monkeys; type: in vivo; details: cynomolgus monkey; for Cmin: 0-48 h; for AUC(0-t): sc
Experimental: 21-Day Experiment: EXT608 was formulated in 20 mM sodium acetate pH=5.5 buffer with 0.8% sodium chloride. In a repeat dose toxicokinetic study, groups of 4 cynomolgus monkeys (2 males+2 females weighing approximately 2.5 kg each) were subcutaneously dosed every other day at a volume of 0.05 ml/kg with either 1.4, 7 or 20 μg/kg of EXT608. On the last day of dosing, Day 21, blood samples (˜1.0 ml) were collected at t=0 (pre-dose), 0.5, 1, 3, 6, 12, 24, 48, and 72 h. Each blood sample was collected from the saphenous vein into tubes containing K2EDTA and centrifuged (˜2700 g, ˜10 min, ˜5° C.) within 1 hour of collection. Plasma was recovered and divided evenly into duplicate aliquots and frozen. 90-Day Experiment: EXT608 was formulated in 10 mM sodium acetate pH=5.5 buffer with 0.8% sodium chloride and 0.1% Polysorbate 80. In a repeat dose toxicokinetic study, groups of 6 cynomolgus monkeys (3 males+3 females) were subcutaneously dosed every other day at a volume of 0.05 ml/kg with either 0.7 or 2 μg/kg of EXT608. On the last day of dosing, Day 89, blood samples (˜1.0 ml) were collected at t=0 (pre-dose), 0.5, 1, 3, 6, 12, 24, 48, and 72 h. Plasma was prepared as described above for the 21-Day experiment. […] Group-averaged EXT608 levels as a function of time are shown in FIG. 14 for the last dose administration after either 21 days of every other day dosing (20, 7, and 1.4 μg/kg) or 89 days of every other day dosing (2 and 0.7 μg/kg). Surprising, the PK profiles changed as a function of dose level. […] Pharmacokinetic parameters were determined from the plasma concentration versus time data (Table 7) by a non-compartmental extravascular administration model with uniform weighting using Phoenix® WinNonlin® Version 6.4 (Certara L.P. (Pharsight), Princeton, NJ). Pharmacokinetic analysis was performed on data for individual animals collected from t=0 to 72 h following the last administered dose. […] It is noted that the t1/2 values were calculated from less than three half-lives of data. […] The Cmax/Cmin ratio represents the peak-to-trough ratio of EXT608 concentration that is observed during a dosing period. […] Without being bound by theory, the low peak-to-trough ratios observed at low doses could be the result of a slower rate of absorption of EXT608 from the subcutaneous space into circulation. A low peak-to-trough ratio is desirable in many therapeutic applications including parathyroid hormone replacement therapy. This is because it allows dosing at levels close to the ideal efficacious dose without going too high where toxicity is observed, or too low where the efficacy is reduced.

[3] = test system: healthy human participants; test: Single dose pharmacodynamics of EXT608 in healthy humans (serum calcium, endogenous PTH(1-84), urinary calcium); type: in vivo; details: any dose level tested, about 36 hours post-administration (data not shown)
Experimental: EXT608 vastly improves the serum half-life in humans in a dose-dependent manner. Sterile EXT608 formulations were prepared at a concentration of 0.4 mg/ml in 10 mM sodium acetate buffer pH=5.5, 4.5% mannitol, and 0.25% Polysorbate 80 and filled into sterile vials. Healthy human participants were administered EXT608 by subcutaneous injection in the abdomen at doses of 0, 36, 108, 216, or 324 micrograms (n=3). Pharmacodynamics: Blood samples were collected at −24, −1, 0.5, 1, 2, 4, 8, 12, 18, 24, 36, 48, and 72 hours relative to dosing as well as on Days 5, 7, 14, 21, and 28 after dosing. They were processed to serum and submitted to Quest Diagnostics for standard blood chemistry analysis including total calcium and albumin. EXT608 raised serum calcium levels in a dose-dependent fashion and was able to maintain elevated calcium levels for 24 h. Blood samples (1.5 ml) were collected at −1, 4, 24, 48, and 72 hours relative to dosing as well as on Days 5, 7, 14, 21, and 28 after dosing. They were processed to EDTA plasma and submitted to Quest Diagnostics for intact PTH(1-84) analysis (Test Code #35202). In healthy humans, under conditions of elevated serum calcium, the body will attempt to restore normal calcium levels by a variety of mechanisms including suppression of endogenous PTH(1-84). […]

[4] = in vivo, 1.4 ug/kg, every-other-day SC 1.4 μg/kg, 21 days

C=C1CC[C@H](OCCCNC(=O)CCOCCOCCOCCOCCOCCOCCOCCOCCOCCOCCOCCOCCOCCOCCOCCOCCOCCOCCOCCOCCOCCOCCOCCOCCOCCOCCOCCOCCOCCOCCOCCOCCOCCOCCOCCOCCNC(=O)CCN2C(=O)CC(SC[C@H](NC(=O)[C@H](Cc3ccccc3)NC(=O)[C@H](CC(N)=O)NC(=O)[C@H](Cc3c[nH]cn3)NC(=O)[C@@H](NC(=O)[C@H](CC(=O)O)NC(=O)[C@H](CCC(N)=O)NC(=O)[C@H](CC(C)C)NC(=O)[C@H](CCCCN)NC(=O)[C@H](CCCCN)NC(=O)[C@H](CCCNC(=N)N)NC(=O)[C@H](CC(C)C)NC(=O)[C@H](Cc3c[nH]c4ccccc34)NC(=O)[C@H](CCC(=O)O)NC(=O)[C@@H](NC(=O)[C@H](CCCNC(=N)N)NC(=O)[C@H](CCC(=O)O)NC(=O)[C@H](CCSC)NC(=O)[C@H](CO)NC(=O)[C@H](CC(N)=O)NC(=O)[C@H](CC(C)C)NC(=O)[C@H](Cc3c[nH]cn3)NC(=O)[C@H](CCCCN)NC(=O)CNC(=O)[C@H](CC(C)C)NC(=O)[C@H](CC(N)=O)NC(=O)[C@H](Cc3c[nH]cn3)NC(=O)[C@H](CCSC)NC(=O)[C@H](CC(C)C)NC(=O)[C@H](CCC(N)=O)NC(=O)[C@@H](NC(=O)[C@H](CCC(=O)O)NC(=O)[C@H](CO)NC(=O)[C@@H](NC(=O)[C@@H](N)CO)C(C)C)[C@@H](C)CC)C(C)C)C(C)C)C(N)=O)C2=O)C/C1=C/C=C1\CCC[C@]2(C)[C@@H]([C@H](C)CCCC(C)(C)O)CC[C@@H]12 (stereo partly drawn) [EXT608]
half-life [1]: 8 to 15 h
Cmin ([2]; every-other-day SC 0.7 μg/kg, 89 days): 0.600 ng/mL
Cmin ([2]; every-other-day SC 1.4 μg/kg, 21 days): 0.485 ng/mL
Cmin ([2]; every-other-day SC 2 μg/kg, 89 days): 0.635 ng/mL
Cmin ([2]; every-other-day SC 7 μg/kg, 21 days): 0.991 ng/mL
Cmin ([2]; every-other-day SC 20 μg/kg, 21 days): 1.97 ng/mL
AUC(0-t) ([2]; in vivo, 0.7 ug/kg, every-other-day SC 0.7 μg/kg, 89 days, read-out: AUC0-48 h): 45.4 ng·h/mL
AUC(0-t) ([2]; in vivo, 0.7 ug/kg, every-other-day SC 0.7 μg/kg, 89 days, read-out: AUClast): 61.6 ng·h/mL
AUC(0-t) ([2]; in vivo, 1.4 ug/kg, every-other-day SC 1.4 μg/kg, 21 days, read-out: AUC0-48 h): 41.5 ng·h/mL
AUC(0-t) ([2]; in vivo, 1.4 ug/kg, every-other-day SC 1.4 μg/kg, 21 days, read-out: AUClast): 48 ng·h/mL
AUC(0-t) ([2]; in vivo, 2 ug/kg, every-other-day SC 2 μg/kg, 89 days, read-out: AUC0-48 h): 63.1 ng·h/mL
AUC(0-t) ([2]; in vivo, 7 ug/kg, every-other-day SC 7 μg/kg, 21 days, read-out: AUC0-48 h): 147 ng·h/mL
AUC(0-t) ([2]; in vivo, 20 ug/kg, every-other-day SC 20 μg/kg, 21 days, read-out: AUC0-48 h): 401 ng·h/mL
Cmax [2, 4]: 1.63 ng/mL
Tmax [2, 4]: 1.8 h
Cmax ([2]; in vivo, 20 ug/kg, every-other-day SC 20 μg/kg, 21 days): 38.1 ng/mL
half-life ([2]; in vivo, repeated every-other-day SC dosing, across doses, calculated from less than three half-lives of data, read-out: t1/2 of elimination): 34.7 to 51 h
effect on urinary calcium [3]: did not cause a significant increase
